Residue numbers refer to the chain shown, from its start.
B1: JR062 (antibody, V domains shown)
VH: EVQLVESGGGLIQPGGSLRLSCAASGFSVSNNYMNWVRQAPGKGLEWLSVIYNAGTTYYAGSVKGRFTISKDNSKNTLYLQLNSLRPEDTAVYYCARGHTGVAALMTGAFDIWGQGTMVTVSS
VL: QSALTQPPSASGSPGQSVTISCTGTSSDVGGYDYVSWYQQYPGKAPKLMIYEVSKRPSGVPDRFSGSKSGNTASLTVSGLQAEDEADYYCSSYAGNNNWVFGGGTKLTVL
B2: JR307 (antibody, V domains shown)
VH: EVQLVESGGGLVQPGGSLRLSCEVSGFTFSNYWMHWVRQAPGKGLVWVSRVDSDGNSTTYADSVNGRFTISRDNAKNTLYLQMKSLRAEDTAIYYCTRDCENCRHWYFDLWGRGTLVTVS
VL: SYELTQPPSVSVTPGQTARIACGGNNIGTKGVHWYQQRPGQAPVLVVYDDENRPSGIPERFSGSNSGDTATLIITWVEAGDEADYYCQVWHGLSDHPVFGGGTRLTVL
B3: JR081 (antibody, V domains shown)
VH: QVQLVQSGAEVKKPGASVKVSCKASGYIFTAYYMHWVRQAPGQGLEWMGWINPMSGATNYAQRFQGRVTMTRVTMTRDTSITTAYMELSRLRSDDTAVYYCARVNHIVGVTSSDPVYGMDVWGQGTTVTVSS
VL: QSALTQPASVSGSPGQSITISCTGTSSDVGGYKYVSWYQQHPGKAPKLMIYEVSNRPSGVSSRFSGSKSGYTASLTISGLQAEDEADYYCSSYTNSPTLFYVFGTGTKVTVL
B4: JR057 (antibody, V domains shown)
VH: VQLVESGGGVVQPGRSLRLSCAASGFTFSSYAMHWVRQAPGKGLEWVALISYDGNNKYYADSVKGRFTVSRDNSKNTLFLQMNSLRAEDTAVYYCARDNEVSAAFDFWGQGTMVTVSS
VL: EIVLTQSPGTLSLSPGERATLSCRASQSLSSTYLAWYQHKPGQAPRLLIYAASSRATDIPDRFSGSGSGTDFTLTISRLEPEDFAVYYCQQYGGSPMCSFGQGTKLEIK
B5: JR094 (antibody, V domains shown)
VH: EVQLVQSGAEVKKPGESLKISCKGSGYSFIFYWIGWVRQMPGKGLEWMGIIYPGDSDTRYSPSFQGQVTISADKSISTAYLQWSSLKASDTAMYYCASTVTRSPYDAFDMWGQGTMVTVSS
VL: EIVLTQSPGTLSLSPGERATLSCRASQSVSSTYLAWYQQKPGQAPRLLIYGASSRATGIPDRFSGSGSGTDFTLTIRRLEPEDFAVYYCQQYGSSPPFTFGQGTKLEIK
B6: JR318 (antibody, V domains shown)
VH: QVQLVQSGAEVKSPGASVKVSCKASGYTFTSYDINWVRQATGQGLEWMGWMNPNSGNTDYAQKFQGRVTMTRDTSISTAYMELSSLRSEDTAIYYCARRSGYYNFGVGTRTNYYYYGMDVWGQGTTVTVSS
VL: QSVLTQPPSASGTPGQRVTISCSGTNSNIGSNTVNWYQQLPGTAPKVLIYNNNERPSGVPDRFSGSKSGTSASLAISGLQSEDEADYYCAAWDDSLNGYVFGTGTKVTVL
B7: JR235 (antibody, V domains shown)
VH: EVQLVESGGGLVQPGRSLRLSCAASGFTFDDYAMHWVRQAPGKGLEWVSGISWNSGRIDYADSVKGRFTISRDNAKNSLYLQMNSLRAEDTALYYCAKVSTVTTYLMGYFDLWGRGTLVTVSS
VL: EIVMTQSPATLSVSPGERATLSCRASQSVSSNLAWFQQKPGQAPRLLIYGASTRATGIPARFSGSGSGTEFILTISSLQSEDFAVYYCQLYSYWPPESSFGQGTKLEIK
B8: JR170 (antibody, V domains shown)
VH: QVQLVQSGAEVRKPGASVKVSCKASRYTFTNNYIHWVRQAPGQGLEWMGIINPSGGSTTYAQKFQGRVTMTGDTSTSTVYMELSSLRSEDTAVYYCARGGFVPAATSYFDYWGQGTLVTVS
VL: QSALTQPRSVSGSPGQSVTISCTGTSSDVGGYNYVSWYQQHPGKAPKLMIYDVSKRPSGVPDRFSGSKSGNTASLTISGLQAEDEADYYCCSYAGSYTLVFGGGTKLTVL
B9: JR211 (antibody, V domains shown)
VH: QVQLQESGPGLVKPSGTLSLTCAVSGGSISSSHWWNWVRQPPGKGLEWIGEIYHSGSTNYSPSLKSRVTISVDKSKNQFSLKLSSVTAADTAVYYCAKSMRAGPNDGFDYWGQGTLVTVSS
VL: B8 VL with R8A, V18I, K55N, P61S, D62N, C91S, A94T, G95S, Y97S, L99V
B10: JR097 (antibody, V domains shown)
VH: QVQLVQSGAEVKKPGASVKVSCKTSAYTFTTYFMHWVRQAPGQGLEWMGIINPSGGSTRYAQKFQGRVTMTRDTSTSTVYMELSGLRSEDTAVYYCARERRPGFYDSSGYSFDYWGQGTLVTVSS
VL: SYELTQPPSVSVAPGKTARITCGGNNIGSKSVHWYQQKPGQAPVLVVYDDSDRPSGIPERFSGSNSGNTATLTISRVEAGDEADYYCQVWDSSSDPVVFGGGTKLTVL
B11: JR172 (antibody, V domains shown)
VH: EVQLVESGGGLVQPGRSLRLSCAASGFTFDDYAMHWVRQTPGKGLEWVSSISWNSGSIGYADSVKGRFTISRDNAKNSLYLQMNSLRAEDTALYYCAKDKRIDYSNYGGGFDHWGQGTLVTVSS
VL: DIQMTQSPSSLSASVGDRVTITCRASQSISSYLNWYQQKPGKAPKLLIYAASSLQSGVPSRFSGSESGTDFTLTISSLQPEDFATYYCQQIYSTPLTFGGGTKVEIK
B12: JR179 (antibody, V domains shown)
VH: QVQLVQSGAEVKKPGASVKVSCKASGYTFSSFAISWVRQAPGQGLEWMGWISAYNGNTNYAQNLQGRVTMTTDTSTSTVYMELRSLRSDDTAVYYCAREAGLTGNLDYWGQGTLVTVSS
VL: SYELTQPPSVSVAPGQTARITCGGNNIGSKNVHWYQQKPGQAPVVVVYDDSDRPSGIPERFSGSNSGNTATLTISRVEAGDEADYYCQVWDSRSYHHVVFGGGTKLTVL
B13: JR189 (antibody, V domains shown)
VH: EVQLVESGGGLIQPGGSLRLSCAASGFNVNSNYINWVRQAPGKGLEWVSVIYSSGKTYFADSVKGRFTISRDNSKNTLYLQMNILRAEDTAVYYCATTTTVTPIWGQGTLVTVSS
VL: DIQMTQSPSALSASVGDRVTFTCRASQDIRNYLGWYQQKPGEAPKLLVYAASSLQSGVPSRFSGSGSGTDFTLTISSLQPEDFATYYCLQDYNYPWTFGQGTKVEIK
B14: JR162 (antibody, V domains shown)
VH: EVQLLESGGGLVQQGGSLRLSCAASGFTFSGHAMSWVRQAPGEGLEWVSGISDGGGSTYYADSVRGRFTISRDNSKNTLYLQMNSLRAEDTAVYYCARRGGYCTNTICYTRYYYMDVWGKGTTVTVSS
VL: DIQMTQSPSSVSASVGDRVTITCRSSQDISSWLAWYQQKPGKAPKLLIFAASSLQSGVPSRFSGSGSGTDFTLTISSLQPEDFATYYCQQANSFPLTFGGGTKVEI
B15: JR202 (antibody, V domains shown)
VH: VQLVESGGGVVQPGRSLRLSCAASGFTFTTYTLHWVRQAPGKGLEWVAVISYDGNNKYYADSVKGRFTISRDDSKNTLYVQMNSLRAEDTAVYYCARSIGYYTGVDYWGQGTLVTVSS
VL: NFMLTQPHSVSESPGKTVTISCTGSSGSIAINYVQWYQQRPGSAPITVIYEDNQRPSGVPDRFSGSIDSSSNSASLTISGLKTEDEADYYCQTYHSSTWVFGGGTKLTVL
B16: JR308 (antibody, V domains shown)
VH: QVQLVESGGGVVQPGRSLRLSCAASGFTFSSYGMHWVRQAPGKGLEWVAVISYDGSNKYYADSLKGRFTISRDNSKNTLYLQMNSLRAEDTAVYYCAKEGRGTYYYGSGSCPGGYWGQGTLVTVSS
VL: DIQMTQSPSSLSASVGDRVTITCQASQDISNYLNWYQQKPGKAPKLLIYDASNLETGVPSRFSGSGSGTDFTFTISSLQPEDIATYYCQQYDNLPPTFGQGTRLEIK
B17: JR311 (antibody, V domains shown)
VH: QVQLVQSGAEVKKPGASVKVSCKTSGYTFTNYFVHWVRQAPGQGLEWMGWINPNSGGTNYAQTFQAWVTMTRDTSINTAYMELSRLTSDDTAVYYCARDLSFSIVRGVMGYWGQGTLVTVSS
VL: not shown
B18: JR095 (antibody, V domains shown)
VH: VQLVESGGGVVQPGRSLRLSCAASGFTFSRYAMHWVRQAPGKGLQWVAIISYDGSNKYYADSVKGRFTISRDNSKNTLYLQMNSLRAEDTAVYYCARHITGTDYWGQGTLVTVSS
VL: DIQMTQSPSSLSASVGDRVTITCRASQGISIYLAWFQQKPGKAPKSLIYAASNLQSGVPSKFSGSGSGTDFTLTISSLQPEDFATYYCQQYDSYPITFGQGTRLEIK
B19: JR070 (antibody, V domains shown)
VH: QLVQSGPEVKKPGTSVKVSCKASGFTFSSSAMQWVRQARGQGLEWIGWIVVGSGNTNYAQKFQERVTISRDMSTSTAYMEVSSLTSEDAAVYYCAAPNCSRTTCSDGFDIWGQGTMVTVSS
VL: EIVLTQSPGTLSLSPGERATLSCRASQSVRSSYLAWYQQKPGQAPRLLIYGASSRATGIPDRFSGSGSGTDFTVTISRLEPEDFAVYYCQQYGNSPWTFGQGTKVEIK
B20: JR171 (antibody, V domains shown)
VH: QVQLVQSGAEVKKPGASVKVSCKASGYTFTSYYMHWVRQAPGQGLEWMGIINPSGGSTSYAQKFQGRVTMTRDTSTSTVYMELSSLRSEDTAVYYCARAYDSAPGFDYWGQGTLVTVSS
VL: DIQLTQSPSFLSASVGDRVTITCRASQGISSYLAWYQQKPGKAPKLLIYAASTLQSGVPSRFSGSGSGTEFTLTISSLQPEDFATYYCQQLNSYPSITFGQGTRLEIK
B21: JR316 (antibody, V domains shown)
VH: QVQLVQSGAEVKKPGSSVKVSCKASGGSFSTHGISWVRQAPGQGLEWMGGIIPISGRANYAQNFQGRVTITADESTKTAYMELSSLRSEDTAVYYCARDDRFCDTTKCYGLWFDPWGQGTLVTVSS
VL: DIQMTQSPSSLSASVGDRVTITCRASQSISTYLNWYQQKPGKAPKVLIYAASTLQSGVPSRFSGSGSGTDFTLTISSLQPEDFATYYCQQTYSSPRAFGQGTKVEIK

Experiments:
[1] = molecular target: T1, SARS-CoV-2 Wuhan-Hu-1 RBD (SARS-CoV-2, Wuhan-Hu-1 (GenBank …, UniProt P0DTC2)); assay: BLI; conditions: both partners purified
[2] = molecular target: T1, SARS-CoV-2 Wuhan-Hu-1 RBD; assay: cell-based or functional assay

Binder | binding result [1] | neutralisation IC50, Wuhan-Hu-1 pseudovirus [2]
B1 | binds | 0.0029 µg/mL
B2 | binds | > 1 µg/mL
B3 | binds | 0.00347 µg/mL
B4 | binds | 0.0142 µg/mL
B5 | binds | > 1 µg/mL
B6 | binds | 0.00652 µg/mL
B7 | binds | > 1 µg/mL
B8 | binds | > 1 µg/mL
B9 | binds | > 1 µg/mL
B10 | binds | > 1 µg/mL
B11 | binds | > 1 µg/mL
B12 | binds | > 1 µg/mL
B13 | binds | 0.0077 µg/mL
B14 | binds | 0.00455 µg/mL
B15 | binds | 0.00354 µg/mL
B16 | binds | > 1 µg/mL
B17 | binds | > 1 µg/mL
B18 | binds | > 1 µg/mL
B19 | binds | 0.00193 µg/mL
B20 | binds | > 1 µg/mL
B21 | binds | 0.0108 µg/mL

Source: PMC9253517 (The Journal of Experimental Medicine, 2022)
